Data from paper PMC4591472 (Microbiology (Reading, England), 2015).

T1: FloT tagged to the T25 catalytic domain of adenylate cyclase (B. subtilis NCIB3610, UniProt O32076 1-509)
T1 sequence (looked up): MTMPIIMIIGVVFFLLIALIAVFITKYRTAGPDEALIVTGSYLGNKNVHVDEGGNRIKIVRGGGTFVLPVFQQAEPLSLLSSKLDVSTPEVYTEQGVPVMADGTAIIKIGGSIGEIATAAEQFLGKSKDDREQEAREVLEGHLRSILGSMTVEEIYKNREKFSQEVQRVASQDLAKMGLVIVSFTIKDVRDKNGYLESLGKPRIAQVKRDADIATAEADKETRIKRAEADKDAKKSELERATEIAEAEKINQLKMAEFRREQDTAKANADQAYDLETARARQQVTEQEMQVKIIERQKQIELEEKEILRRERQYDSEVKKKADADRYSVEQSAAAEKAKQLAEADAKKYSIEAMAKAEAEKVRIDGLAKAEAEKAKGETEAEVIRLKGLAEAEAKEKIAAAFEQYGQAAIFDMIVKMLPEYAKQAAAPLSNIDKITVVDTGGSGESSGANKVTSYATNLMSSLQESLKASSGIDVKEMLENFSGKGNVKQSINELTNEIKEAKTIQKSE

B1: KinB, bacterial two-hybrid fusion (enzyme, B. subtilis NCIB3610, UniProt Q08430 1-428, looked up)
chain: MEILKDYLLHICFILFPILLYQVFWLGKPAILVPKINSGLVTLFACGASVLCIIFPIHEMDYIQYGLQMIPVIICLFYISTASGLTVAASVLCFELLFYEPSAMFVFTLLPFLIIIPILFQKKWPFMSKAKKLLLSLLISCVEIFLFFASSWILSALNILNFQKSGIFVYEAAVSGLFRSSVLLLSIYIIESIAENIALRSQLIHSEKMTIVSELAASVAHEVRNPLTVVRGFVQLLFNDETLQNKSSADYKKLVLSELDRAQGIITNYLDMAKQQLYEKEVFDLSALIKETSSLMVSYANYKSVTVEAETEPDLLIYGDATKLKQAVINLMKNSIEAVPHGKGMIHISAKRNGHTIMINITDNGVGMTDHQMQKLGEPYYSLKTNGTGLGLTVTFSIIEHHHGTISFNSSFQKGTTVTIKLPADLPH
B2: ResE, bacterial two-hybrid fusion (enzyme, B. subtilis NCIB3610, UniProt P35164 1-589, looked up)
chain: MKFWKSVVGKLWFTILSLVLIVLFILTVLLLEFIENYHVEEAENDLTQLANKVAVILENHEDQALARSITWELADNLTSIAIIQDEKNHWYSPNDKNRLSSITVEQIQHDKDLNKALKDHKKVSKRTGLSDTDTDNERLIVGVPYEKDGKKGMVFLSQSLLAVKDTTKHTTRYIFLAAGIAIVLTTFFAFFLSSRVTYPLRKMREGAQDLAKGKFDTKIPILTQDEIGELATAFNQMGRQLNFHINALNQEKEQLSNILSSMADGVITINIDGTILVTNPPAERFLQAWYYEQNMNIKEGDNLPPEAKELFQNAVSTEKEQMIEMTLQGRSWVLLMSPLYAESHVRGAVAVLRDMTEERRLDKLREDFIANVSHELRTPISMLQGYSEAIVDDIASSEEDRKEIAQIIYDESLRMGRLVNDLLDLARMESGHTGLHYEKINVNEFLEKIIRKFSGVAKEKNIALDHDISLTEEEFMFDEDKMEQVFTNLIDNALRHTSAGGSVSISVHSVKDGLKIDIKDSGSGIPEEDLPFIFERFYKADKARTRGRAGTGLGLAIVKNIVEAHNGSITVHSRIDKGTTFSFYIPTKR
B3: KinC, bacterial two-hybrid fusion (enzyme, B. subtilis NCIB3610, UniProt P39764 1-428, looked up)
chain: MRKYQARIISIILAMIFIMFWDYLFYFIGKNPINWPVDIVYTAVTLVSVWMLAYYIDEKQQLVKKMKDNEWKYKQLSEEKNRIMDNLQEIVFQTNAKGEITYLNQAWASITGFSISECMGTMYNDYFIKEKHVADHINTQIQNKASSGMFTAKYVTKNGTIFWGEVHYKLYYDRDDQFTGSLGTMSDITERKEAEDELIEINERLARESQKLSITSELAAGIAHEVRNPLTSVSGFLQIMKTQYPDRKDYFDIIFSEIKRIDLVLSELLLLAKPQAITFKTHQLNEILKQVTTLLDTNAILSNIVIEKNFKETDGCMINGDENQLKQVFINIIKNGIEAMPKGGVVTISTAKTASHAVISVKDEGNGMPQEKLKQIGKPFYSTKEKGTGLGLPICLRILKEHDGELKIESEAGKGSVFQVVLPLKSDS
B4: KinC-CFP (enzyme, B. subtilis, UniProt P39764 1-428, looked up)
chain: B3 chain
B5: KinD, bacterial two-hybrid fusion (enzyme, B. subtilis NCIB3610, UniProt O31671 1-506, looked up)
chain: MLERCKLKILKGACGRVKLYIILVVIPAIVISFFVYEKEKDTIAAEHKQEASVLLNLHRNKINYLIGETMARMTSLSIAIDRPVDIKKMQSILEKTFDSEPRFSGLYFLNAKGDVTASTTELKTKVNLADRSFFIKAKETKKTVISDSYSSRITGQPIFTICVPVLDSKRNVTDYLVAAIQIDYLKNLINLLSPDVYIEVVNQDGKMIFASGQASHAEDQKPVSGYLDDISWNMKVYPNPVTIEELSKSLVLPLSCIIVLLNILFILVLYYLLKRQTQLERSENEAQKLELIGTLAASTAHEIRNPLTGISGFIQLLQKKYKGEEDQLYFSIIEQEIKRINQIVSEFLVLGKPTAEKWELNSLQDIIGEIMPIIYSEGNLYNVEVELQYLTEQPLLVKCTKDHIKQVILNVAKNGLESMPEGGKLTISLGALDKKAIIKVVDNGEGISQEMLDHIFLPFVTSKEKGTGLGLVVCKRIVLMYGGSIHIESEVRRGTEVTITLPVSAS

Assays:
two-hybrid = biological target: the molecule itself; experiment: two-hybrid
[1] = biological target: T1, FloT tagged to the T25 catalytic domain …; experiment: two-hybrid
native gel or EMSA = biological target: the molecule itself; experiment: native gel or EMSA

Binder | β-galactosidase activity (two-hybrid) [Miller Units] | β-galactosidase activity [1] [Miller Units] | stoichiometry N (native gel or EMSA)
B1 | ~5500 | – | –
B2 | – | ~1600 | –
B3 | ~1500 | > 3500 | –
B4 | – | – | 2
B5 | ~1500 | ~1100 | –
